Assay results as given in US20220363763A1.
Values belong to the substance of their own block, whether it stands above or below them.

Experiments:
[1] = molecular target: human LAG3 on cells (human) (UniProt P18627); assay: flow cytometry (MFI) on activated CD4 T cells, lower panel; EC50 table has no unit, x axis Concentration (nM); fit value of a flat control curve
[2] = molecular target: human LAG3 on cells (human) (UniProt P18627); assay: flow cytometry (MFI) on Jurkat-LAG3 cells, upper panel; EC50 table has no unit, x axis Concentration (nM); fit value of a flat control curve
[3] = molecular target: human PD-L1-Fc protein (human) (UniProt Q9NZQ7); assay: ELISA on coated human PD-L1-Fc; EC50 table has no unit, x axis Ab(nM); fit value of a flat control curve
[4] = molecular target: human PD-L1 expressed on mammalian cells (human) (UniProt Q9NZQ7); assay: cell-based binding on Raji-PDL1 cells (FACS by paragraph 328; the y axis of the sheet is labelled IL2 (ng/ml)); EC50 table has no unit, x axis Concentration (nM)
Chain of human PD-L1 expressed on mammalian cells (human) (Q9NZQ7 19-290): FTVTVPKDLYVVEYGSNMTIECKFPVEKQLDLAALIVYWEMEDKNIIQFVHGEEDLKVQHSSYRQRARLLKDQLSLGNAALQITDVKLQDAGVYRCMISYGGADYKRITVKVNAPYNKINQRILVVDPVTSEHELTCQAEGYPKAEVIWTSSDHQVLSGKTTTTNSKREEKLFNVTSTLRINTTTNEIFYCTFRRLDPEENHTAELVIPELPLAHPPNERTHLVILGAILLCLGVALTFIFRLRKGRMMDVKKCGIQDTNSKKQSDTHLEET

Chain of human LAG3 on cells (human) (P18627 23-525): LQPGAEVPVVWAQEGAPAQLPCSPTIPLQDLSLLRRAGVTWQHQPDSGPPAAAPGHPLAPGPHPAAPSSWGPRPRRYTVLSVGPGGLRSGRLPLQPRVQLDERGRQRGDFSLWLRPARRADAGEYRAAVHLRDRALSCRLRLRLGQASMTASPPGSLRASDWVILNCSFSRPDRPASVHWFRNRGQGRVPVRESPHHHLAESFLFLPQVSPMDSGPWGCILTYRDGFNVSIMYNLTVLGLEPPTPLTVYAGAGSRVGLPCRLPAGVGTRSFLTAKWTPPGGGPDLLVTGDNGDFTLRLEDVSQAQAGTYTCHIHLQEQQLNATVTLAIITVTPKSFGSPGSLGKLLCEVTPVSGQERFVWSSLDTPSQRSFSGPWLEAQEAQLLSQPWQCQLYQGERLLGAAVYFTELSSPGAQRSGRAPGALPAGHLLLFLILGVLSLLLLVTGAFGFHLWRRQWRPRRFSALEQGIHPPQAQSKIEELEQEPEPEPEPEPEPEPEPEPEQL
Chain of human PD-L1-Fc protein (human) (Q9NZQ7 19-239 limits assumed): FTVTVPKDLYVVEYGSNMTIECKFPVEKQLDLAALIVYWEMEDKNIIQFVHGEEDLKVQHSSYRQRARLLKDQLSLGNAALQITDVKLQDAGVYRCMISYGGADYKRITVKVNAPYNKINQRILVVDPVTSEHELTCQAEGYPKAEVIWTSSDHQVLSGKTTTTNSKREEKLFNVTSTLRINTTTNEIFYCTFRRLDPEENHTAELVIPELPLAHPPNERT

EC50 [1]: 3590 µM
EC50 [2]: 0.000463 µM
Substance: IgG (antibody)

EC50 [3]: 0.0848 µM
Substance: hIgG (antibody)

EC50 [4]: 0.000891 µM
Substance: Tecentriq (antibody)
